US6645504B1, “Bystander suppression of type I diabetes by oral administration of glucagon” (AutoImmune Inc., priority 1987, dated 2003)

Experiments:
OVA line = assay: Transwell culture suppression of OVA T cell line; assay type: cell-based, Lewis rats
Description: Transwell Cultures. A dual chamber transwell culture system (Costar, Cambridge, Mass.), which is 24.5 mm in diameter and consists of two compartments separated by a semi-permeable polycarbonate membrane, with a pore size of 0.4 μm, was used. The two chambers are 1 mm apart, allowing cells to be coin-cubated in close proximity without direct cell-to-cell contact. To measure in vitro suppression of proliferative responses in transwell cultures, 5×10^4 MBP- or OVA-specific line cells, raised and maintained as previously described (Ben-Nun, A. et al., Eur. J. Immunol. 11:195, 1981), were cultured with 10^6 irradiated (2,500 rad) thymocytes, in 600 μl of proliferation media in the lower well. Spleen cells from orally tolerized rats or controls (fed BSA) were added to the upper well (5×10^5 cells in 200 μl). Spleen cells were removed 7-14 days after the last feeding, and a single cell suspension was prepared by pressing the spleens through a stainless steel mesh. MBP and OVA (50 μg/ml) were added in a volume of 20 μl. […] In some experiments, modulator cells were added in the lower well together with responder cells, and in these instances modulator cells were irradiated (1,250 rad) immediately before being placed in culture. Proliferation media consisted of RPMI 1640 (Gibco Laboratories, Grand Island, N.Y.) supplemented with […] 2-mercaptoethanol, 1% sodium pyruvate, 1% penicillin and streptomycin, 1% glutamine, 1% HEPES buffer, 1% nonessential amino acids, and 1% autologous serum. Each transwell was performed in quadruplicate. The transwells were incubated at 37° C. in a humidified 6% CO2 and 94% air atmosphere for 72 hours. After 54 hours of culture, each lower well was pulsed with 4 μCi of [^3H]thymidine and at 72 hours split and reseeded to three wells in a round-bottomed 96-well plate (Costar) for harvesting onto fiberglass filters and counting using standard liquid scintillation techniques. Percent suppression =100×(1−Δ A cpm responders cultured with modulators/Δ cpm of responders).

EAE [1] = assay: In vivo bystander suppression of EAE (MBP/CFA plus secondary antigen); parameters: species or system Lewis rats; conditions: MBP fed before MBP/CFA immunization; FIG. 6B
Description: Immunization Of Animals. Animals were immunized with 25 μg of MBP in the footpad, emulsified in an equal volume of CFA containing 4 mg/ml of Mycobacterium tuberculosis (Difco Labs, Detroit, Mich.) in order to induce a substantial EAE disease state. For in vivo bystander suppression experiments, 50-300 μg of the secondary antigens OVA, BSA or KLH were injected subcutaneously in the same footpad in 100 μl PBS 8 hours after primary immunization with MBP CFA.
Clinical Evaluation. Animals were evaluated in a blinded fashion every day for evidence of EAE in order to correlate the clinical manifestations of Bystander Suppression with the in vitro assays described below. Clinical severity of EAE was scored as follows: 0, no disease; 1, limp tail; 2, hind limb paralysis; 3, hind limb paraplegia, incontinence; 4, tetraplegia; 5, death. Mean maximal clinical severity was calculated as previously described for each experimental group (7). Statistical analysis was performed using a one-tailed student's t test and a chi square analysis for comparing incidence between groups.
Induction Of Oral Tolerance. Animals were fed 1 mg MBP, OVA, BSA or KLH dissolved in 1 ml PBS or PBS alone, by gastric intubation using an 18-gauge stainless steel animal feeding needle (Thomas Scientific, Swedesboro, N.J.). Animals were fed five times (total dose of 5 mg), at intervals of 2-3 days with the last feeding 2 days before immunization.

[2] = test system: DTH responses to MBP or OVA; assay: Delayed type hypersensitivity (DTH) testing, Example 2; assay type: in vivo, Lewis rats; conditions: fed antigen, then immunized with MBP/CFA plus OVA; FIG. 7
Description: Delayed Type Hypersensitivity (DTH) Testing. DTH was tested by injecting 50 μg of MBP or OVA in PBS, subcutaneously into the ear. MBP was injected in the left ear and OVA in the right ear in the same animal. Thickness, in units of 0.01 inch, was measured in a blinded fashion, before and 48 hours after challenge, using micrometer calipers (Mitutoyo, Utsunomia, Japan). Change in ear thickness before and after challenge was recorded for each animal, and results were expressed as the mean for each experimental group ± SEM; each group consisted of five animals.

EAE [3] = assay: Adoptive transfer of disease suppression; assay type: in vivo, Lewis rats; conditions: naive recipients immunized with MBP/CFA and given OVA subcutaneously; FIG. 9
Description: Adoptive Transfer Of Disease Suppression. In order to monitor the adoptive transfer of disease suppression occurring during Bystander Suppression donor rats were fed either 1 mg MBP, OVA, or KLH, five times at 2 day intervals and killed 7-14 days after the final feeding. Spleen cells were harvested, and incubated in vitro with the homologous antigen (50 μg/ml) in proliferation medium, for 72 hours. Cells were injected intraperitoneally: 10^8 cells for whole spleen populations or 5-6×10^7 cells for CD8− or CD4-depleted populations. Recipient animals were irradiated (250 rad) before adoptive transfer, immunized with MBP/CFA 6 hours after adoptive transfer, and challenged 8 hours later with 50 μg OVA.

insulitis = assay: Suppression of insulitis in NOD mice by oral administration; assay type: in vivo; conditions: fed orally
Description: NOD mice (Taconic Labs) were fed one mg of glucagon, or one mg of porcine insulin (both commercially purchased) or equal molar amounts of insulin A-chain, B-chain and B-chain peptides described below (all insulin fragments having been synthesized) twice weekly for five weeks and sacrificed at ten weeks of age.
Control animals were fed a non-pancreatic (i.e., unrelated) peptide, GAP. Insulitis was measured as a semiquantitative insulitis score according to the method described in Zhang, Z. J., PNAS(USA), 88:10252-10256, 1991.
The insulin B-chain peptides corresponded to amino acid residues 1-12 (B1-12), 10-22 (B10-22), 11-30 (B11-30) and 23-30 (B23-30). All animals were fed 10 times over three weeks.

EAE [4] = assay: EAE induced by guinea pig MBP 71-90, feeding of MBP peptides; assay type: in vivo, Lewis rats; conditions: fed; FIG. 14
Description: The effects of feeding various peptides to Lewis rats induced for EAE by guinea pig MBP residue nos. 71-90 (the major immunodominant epitope of guinea pig MBP as shown in Example 3 above) were also studied.
EAE was induced by immunizing with 0.25 mg of guinea pig MBP amino acid residue nos 71-90 in Complete Freund's Adjuvant and the effect of feeding various guinea pig MBP peptides on EAE was examined.

EAE [5] = assay: I.V. tolerization with MBP and MBP peptides in EAE induced with whole guinea pig MBP; assay type: in vivo, SJL/J mice; conditions: days 8 and 9 post immunization, FIG. 16
Description: FIG. 16 is a bar graph showing the effect of intravenous tolerization with MBP and disease inducing and non-inducing fragments thereof on induced EAE expression in SJL/J mice.
Finally, the suppression of EAE by I.V. tolerization with MBP and MBP peptides prior to disease expression (on days 8 and 9 post immunization) was examined.

[6] = MBP-fed modulators + MBP in upper well
[7] = MBP-fed modulators in upper well without MBP

B1: MBP: Guinea pig myelin basic protein purified from brain tissue (protein, UniProt P25188 1-167, looked up)
Myelin basic protein: ASQKRPSQRHGSKYLATASTMDHARHGFLPRHRDTGILDSIGRFFGSDRAAPKRGSGKDSHHAARTTHYGSLPQKSQRSQDENPVVHFFKNIVTPRTPPPSQGKGRGLSLSRFSWGAEGQKPGFGYGGRADYKSKGFKGAHDAQGTLSKIFKLGGRDSRSGSPMARR
- Percent Suppression (OVA line; [6]): 51%
- Δ cpm (OVA line; [6]): 30,974 ± 3,450 cpm
- Percent Suppression (OVA line; [7]): −5%
- Δ cpm (OVA line; [7]): 65,868 ± 3,989 cpm
- disease severity (EAE [1]): 1.1±0.1
- DTH responses to MBP [2]: Suppressed DTH responses to MBP
- adoptive transfer of protection by spleen cells from fed animals (EAE [3]): adoptively transferred protection
- suppression of insulitis (in words) (insulitis): No suppression was observed
- Insulitis Score (insulitis; amount (mg) per Table 5, sacrificed at ten weeks of age): 2.14
- down-regulation of EAE induced by guinea pig MBP 71-90 (EAE [4]): equally effective in down-regulating EAE
- suppression of EAE induced with whole guinea pig MBP (EAE [5]): effective in suppressing EAE
